Assay: yeast display, Sf9 membrane polyspecificity reagent, FACS + sequencing; frameworks hold sequencing errors
Summary of the method: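 Polyreactivity labels are assigned by the sorting gate from which each nanobody was recovered. The gates were low and high (top ~1%), set on anti-HA fluorescence for expression and streptavidin fluorescence for reagent binding. Before sorting, galactose-induced (36–48 hours) yeast display cells were stained for 1 hour at 4 °C with 10% biotinylated, detergent-solubilized Sf9 membrane reagent.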

Row | Sequence | polyreactivity (PSR sort gate)
1 | QVQLVESGGGLVQAGGSLRLSCAASGRTFTRNAMGWYRQAPGKERELVAVITSSGRTNYADSVKGRFTISRDNAKNTVYLQMNSLKPEDTAVYYCNKVSARYPYPLYDYWGQGTQVTVSS | high polyreactivity
2 | QVQLVESGGGLVQAGGSLRLSCAASGITFYWNDMGWYRQATGKERELVAAIRRTAGSTYYADSVKGRFTISRDNAKNTVYLQMNSLKPEDTAVYYCAASRHFARHRGYYFRYDYWGQGTQVTVSS | high polyreactivity
3 | QVQLVESGGGLVQAGGSLRLSCAASGLTFAFYAMGWYRQAPGKEREFVAAITTGGSTYYADSVKGRFTISRDNAKNTVYLQMNSLKPEDTAVYYCAADLYRRRGQFDYWGQGTQVTVSS | high polyreactivity
4 | QVQLVESGVGLVQAGGSLRLSCAASGRIFERYAMGWYRQAPGKERELVAAIRSGGSTKYADSVKGRFTISRGNAKNTVYLQMNSLKPEDTAVYYCAAVIHYGDGYWGQGTQVTVSS | low polyreactivity
5 | QVQLVESGGGLVQAGGSLRLSCAASGSTFQGYAMGWYRQAPGKERELVARISYTGASTYADSVKGRFTISRDNAKNTVYLQMNSLKPDDTAVYYCNAGGYRYRSYDYWGQGTQVTVSS | high polyreactivity
6 | QVQLVESGGGLVQAGGSLRLSCAASGSTFEYNAMRWYRQAPGKERELVAAITWSVGSTYYADSVKGRFTISRDNAKNSVSIQMNSLKPEDTAVDYCARVPSAFARWHTYDYWGQGTQVTVSS | low polyreactivity
7 | QVKLEESGGCLVQAGGSLRLSCAASGFTFEENAMGWYRQAPGKERELVAAINWSGGNTYYADSVKGRFTISRDNAKNTVYLQMNSLKPEDTAVYYCAADSPRYYYWVGPYYGYDYWGQGTQVTVSS | high polyreactivity
8 | QVQLVESGGGLVQAGGSLRLSCAASGRIFGSYAMGWYRQAPGKEREFVAAISVGSGSTYYADSVKGRFTISRDNAKNTVYLQMNSLKPEDTAVYYCAAENLYIDPRDWYGTWDTGYYWGQGTQVTVSS | high polyreactivity
9 | QVQLVESGGGLVQAGGSLRFSCAASGSISSQYGMGWYRQEPGKVRELVATIRDGGPTNYADSVKGRFTISRDNAKYTVYLQMNSLKPEDTAVYSCAALYWYYYTWPLYDYWGQGTQVTVSS | low polyreactivity
10 | QVQLVESCGCLVQAVGSLRLSCAASGRIFGWYAMGWDRQAPVKERELVAAISSARRTYYADSVKGRFTISRDNAKNSVYLQMNSLKPEDTAVSYCAAYYYNDRMYYWGQGNQVTVSS | high polyreactivity
11 | QVQLVESGGGLVQAGGSLRLSCAASGSTFWIYAMGWYRQAPGKERELVAAINWSGGNTYYADSVKGRFTISRDNAKNTVYLQMNSLKPEDTAVYYCAAAFYIYGVEGDYWGQGTQVTVSS | low polyreactivity
12 | QVHLVESGGGLVQAGGSLRLSCAASGFPFGSYAMGWDRPAPGKERELVSGISRGGSTNYADSVKGRFTISRDNAKNTVYLQMNSLKPEDTAVYYCAARAVFVADTGATPAGYDYWGQGTQVTVSS | low polyreactivity
13 | QVQIVESGGGLVQAGGSLRLSCAASGRTFKGYAMAFYRQAPGKERELVAGISRGAGRTYYADSVKGRFTISRDNAKNTVYLQMNSLKPEDTAVYYCAAVPSYNSTSPFYYWGQGTQVTVSS | high polyreactivity
14 | QVQLVETGGGLVQAGGSLSLSCAASGSTFAYYAMGWYRQAPGKERELVAGITWTGGSTYYADSVKGRFTISRDNAKNTVYLQMNSLKPEDTAVYYCAVTYPYGYEYDHWGQGTQVTVSS | low polyreactivity
15 | QVQLVESGGGLVQAGGSLRLSCAASGSTFYKYAMGWYRQAPGKERELVATINISGGSTSYADSVKGRFTISRDYAKNTVYLQMNSLKPEDTAVYYCAASLTRHGYYRRFDYWGQGTQVTVSS | high polyreactivity
16 | QVQLVESGGGLVQAGGSLRLSCAASGRTFSVNVMGWYRQAPGKERELVAAISWSGGNTYYADSVKGRFTISRDNAKNTVYLQMNSLKPEDTAVYYCNTDFADSNYDSSYGYWGQGTQVTVSS | low polyreactivity
17 | QVQLVESGGGLVQAGGSLRLSCAASGSIFALYAIGWYRQAPGKEREFVAAISYNGGSTYYADSVKGRFTISRDNAKNTVYLQMNSLKPEDTAVYYCNDVYYDSGVVGYYYWGQGTQVTVSS | high polyreactivity
18 | QVQLVESGGGIFQAGGSLRLSCDASGFTIGAYAMGWYRQAPGKERELVAAITLRTGGSTYYADSLKGRFTISRDNAKNTVYLQMNSLKPEDTAVYYCATYGSYWRKSRAPGYYYGGQGTQVTVSS | high polyreactivity
19 | QVQLVESGGGLVQAGGSLRLSCAASGSTLYAYAMGWYRQAPGKERELVAAISRSGGSTYYAYSVKGRFTISRDNAKNTVYLQMNSLKPEDTAVYYCNAYYRYFRSIYDSWGQGTQVTVSS | high polyreactivity
20 | QVQLVDSGGGLVQAGGSLRLSCAASGRTFRHNAMGWYRQAPGKERELVATISNRGGTSYYADSVKGRFTISRDNANNTVYLQMNSLKPEDTAVYYCAARVGVLGYVRYGYWGHGTQVTVSS | low polyreactivity
21 | QVQLVESGGGLVLAGGSLRLSCAASGLIFAVYAMGWYRQAPGKERELVAGISASAASTYYADSVKGRFTISRDNAKNTVYLQMNSLKPEDTAVYYCAAGFYRRGKYDYWGQGTQVTVSS | high polyreactivity
22 | QVQLVESGGGLVQAGGSLRLSCAASGFIFGKYAMGWYRQAPRKERELGAAISKSGGSTYYADSVKGRFTISRDNAKNTVYLQMNSLKPEDTAVYYCAARSLGHYGSWGQGTQVTVSS | high polyreactivity

Row | Sequence | polyreactivity (PSR sort gate)
23 | QVQLVESGGGLVQAGGSLRLSCAASGSTFVYYAMGWYRQAPGKERELVAVISDDGGTYYADSVKGRFSISRDNAKNTVYLQMNSLKPEDTAVYYCAKDYYGGAYYWYNDRSGDYWGQGTQVTVSS | low polyreactivity
24 | QVQLVESGGGLVQAGGSLRLSCAASGNTFWKYAMGWYRQAPGKERELVAAITRGGARTYYADSVKGRFTISRDNAKYSVYLQINSLNPEDTAVYYCAAQYWTEYGSWGQGTEVTVSS | low polyreactivity
25 | QVQLEESGGGLVQAGGSLRLSCAASGLIFGHNAMGWYRQAPGKERELVAAISRSGTSTYYADSVKGRFTISRDNAKNTVYLQMNSLKPEDNAVYYCAAENYYTAGGSGPIYRRVYWGQGTQVTVSS | low polyreactivity
26 | QDQLVESGGGLVQAGGSLRLSCAASGSIFVRYAMGWYRQAPGKERELVAAITSSAGYTYYADSVKGRFTISRDNAKNTVNLQMNSLKPEDTAVYYCAAVRYDASKFYYWGAGTQVTVSS | high polyreactivity
27 | QVQLVETGGGLVQAGGSLRLSCAASGFIFSAYAMGWYRQAPGKEREFVAAISKRGGSTYYADSVKGRFTISRENAKNTVYLQMNTLKPDDTAVYYCAAPYSRYLVGYGYWGQGTQVTVSS | high polyreactivity
28 | QVQLVESGGGLVQAGGSLRLSCAASGSIFYTYAMGWYRQAPGKERELVAAISRSGGSTYYADSVKGRFTISRDNAKNTVYLQMNSLKPEDTAVYYCAAVSYRGRGYWGQGTQVTVSS | high polyreactivity
29 | QDQLVESGGGLVQAGGSLRLSCAASGSTLGYNAMGWYRQAPGKERELVAAIRGGDDDTYYADSVKGRFTISRDNAKNTVYLQMNSLKPEDTAVYYCATGDTSIPYSTPGGYDSWGQGTQVTVSS | low polyreactivity
30 | QVQLVESGGGLVQAGGSLRLSCAASGLIFRGNDMGWYRQAPGKERELVAGINSSGSTNYADSVKGRFTISRDNAKNTVYLHMNSLKPEDTAVYYCAARAIVSFDYCGQGTQVTVSS | low polyreactivity
31 | QVQLVESGGGLVQAGGSLRLSCAASGSIFGWYGMGWYRQAPGKERELVAAINWGGTNTYYADSVKGRFTISRDNAKNTVYLQMISLKPEDTAVYSCNADIPRRPNRHYLYDYWGQATQVTVSS | low polyreactivity
32 | QVQLVESGGGLVQAGGSLRLSCAASGSTFSCYAMGWYRQAPGKERELVAAISSSGGTSTYADSVKARFTISRDNAKKTVYLQMNSLKPEDTAVYYCAARQYRRLRDYRHDYWGQGTQVTVSS | high polyreactivity
33 | QVKLVESGGVLVQAGGSLRITCAGSGRIFSRYVMGWYRQAPGKETEFVAYITWSGSSTFYADSVKGRFTISRDNAKNTGYLQMNSHKPEDSAVYFCAALGLLSPSPWGTHISEYDSWGQGTQVTVSS | low polyreactivity
34 | QVQLVESGGGLVQAGGRLRLSCAASGSISASYAMGWSRQAPGKERELVAAITSGGSTYYADSVKGRFTFSRDNAKNTVYFQMNSLKPEETAVYYCAKRPKRTYYPHIGYDYWGQGTQVTVSS | low polyreactivity
35 | QVQLVESGAGLVQAGGRLRLSCAASGFTFYYNAMGWYRQAPGKEREFVAAISRSAGSTTYADSVKGRFTISRDNAKNTVYLQMNSLKPEDTAVYYCNARRSRGKSYDYWGQGTQVTVSS | high polyreactivity
36 | QVHLVESGGGLVQAGGSLRLSCAASGFIFYYYAMGWYRQAPGKERELVASISAIGGGTYYADSVNGRFTISRDNAKNTVYLQMNSLKPEDTAVYYCDPDGDGWWWSYVDRYDYWGQGTQVTVSS | low polyreactivity
37 | QVQLVESGGGLVQAGGSLRLSCAASGSIFHKYTMGWYRQAPGKERELVAAITRSGGSTYYADSVNGRFTISRDNAKNTVYLQMNSLKAEDTAVYYCNKRYIPWAYDYWGQGTKVTVSS | high polyreactivity
38 | QVQLVESGGGLVQAGFSLRLSCAASGNIYYKYAMGWYRQAPGKERELVAAITWRVVRTYYADSVKGRFTISRDNAKNTVYLQMNSLKPEDTAVYYCAALSRQSGDYWGQGTQVTVSS | high polyreactivity
39 | QVQLVESGGGLVQAGGSLRLSCAASGSTFWYYDMGWYRQAPGKERELVAAITSGGRTNYADSVKGRFTISRDNAKNTVYLQMNSLKPEDTAVYYCNAVSYGKYVFQDGDYWGQGTQVTVSS | high polyreactivity
40 | QVQLVESGGGLVQAGGSLRLSCAASGFIFANYAMGWYRQAPGKERELVAAISTSGSSTYYADSVKGRFTISRDNAKNTVYLQMNSLKPEDTAVYYCNTYLTIWGYFYGYDYWGQGTQVTVSS | high polyreactivity
41 | QVQLVESGGGLVQAGGSLRLSCAASGIIFGFNAMGWYRQAPGKERELVAAINGDDSTYYADSVKGRFTISRDTAKNTVYFQMNSLKPEDTAVYYSAARYYRYLTFTGELLVYYWGQGTQVTVSS | low polyreactivity
42 | QVQLVESGGGLVQAGGSLRLSCAASGFIFKRYAMGWYRQAPGKERELVAAISTYSGGRTYYADSVKGRFTISRDNAKNSVYLQMNSLKPEDTAVYYCNARKYVGFWSRYDYWGQGTQVTVSS | high polyreactivity
43 | QVQLVESGGGLVQAGGSLRLSCAASGSNFLYNAMGWYRQAPGKERELVAAITQGGGSTYYADSVKGRFTISLDIAKNTVYLQMISLKPEDTAVYYCNKASFYDAHRLDYWGQGTQVTVSS | high polyreactivity

Source: the nanobody polyreactivity screen of Harvey et al. (2022)
